From patent US20150258192A1, “COMPOSITIONS AND METHODS FOR PREVENTING OR TREATING CHRONIC LUNG ALLOGRAFT DYSFUNCTION (CLAD) AND IDIOPATHIC PULMONARY FIBROSIS (IPF)” (priority 2014, published 2015)
No end group written: not given here.

How the values were obtained:
Assay in all cases: Kinase Profiling Assay
Format in all cases: biochemical
Conditions in all cases: peptide 100 μM
Flt3(D835Y)(h) = Flt3(D835Y)(h) (Homo sapiens, UniProt P36888, D835Y)
How it was run: (§1)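 In this 266-kinase specificity panel, every measurement was duplicated. Transfer of labeled phosphate from ATP to a cationic substrate was quantified after the substrate adhered to an anionic filter membrane and was scintillation-counted, then related to a full-activity control.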

EphA8(h) = target: T1, EphA8(h) (Homo sapiens, UniProt P29322)
T1 sequence (P29322 28-1005): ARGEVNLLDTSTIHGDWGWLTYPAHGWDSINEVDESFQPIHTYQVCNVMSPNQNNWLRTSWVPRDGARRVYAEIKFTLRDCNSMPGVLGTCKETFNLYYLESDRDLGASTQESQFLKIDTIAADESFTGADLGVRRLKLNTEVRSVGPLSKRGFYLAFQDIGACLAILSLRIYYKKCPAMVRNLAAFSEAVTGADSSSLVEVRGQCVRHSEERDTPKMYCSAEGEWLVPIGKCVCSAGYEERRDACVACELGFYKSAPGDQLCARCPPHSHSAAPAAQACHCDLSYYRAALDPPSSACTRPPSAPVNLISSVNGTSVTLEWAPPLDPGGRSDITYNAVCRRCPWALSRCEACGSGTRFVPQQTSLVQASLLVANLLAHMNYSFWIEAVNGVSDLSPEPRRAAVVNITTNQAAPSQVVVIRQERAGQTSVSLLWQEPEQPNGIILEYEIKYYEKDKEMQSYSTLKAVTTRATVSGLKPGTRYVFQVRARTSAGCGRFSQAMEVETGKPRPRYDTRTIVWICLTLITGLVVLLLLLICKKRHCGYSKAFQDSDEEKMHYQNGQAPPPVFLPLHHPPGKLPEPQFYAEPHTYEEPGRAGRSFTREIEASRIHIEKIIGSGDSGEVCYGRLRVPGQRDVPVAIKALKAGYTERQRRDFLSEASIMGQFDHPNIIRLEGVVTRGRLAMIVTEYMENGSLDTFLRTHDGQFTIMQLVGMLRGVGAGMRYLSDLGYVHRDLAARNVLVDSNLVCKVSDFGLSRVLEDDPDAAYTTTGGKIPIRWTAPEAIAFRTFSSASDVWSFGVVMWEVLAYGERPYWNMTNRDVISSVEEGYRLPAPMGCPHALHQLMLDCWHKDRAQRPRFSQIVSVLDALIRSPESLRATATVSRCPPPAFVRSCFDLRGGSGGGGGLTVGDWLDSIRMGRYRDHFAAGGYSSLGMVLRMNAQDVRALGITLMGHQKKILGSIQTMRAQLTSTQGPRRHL
How it was run: as §1

Lyn(h) = target: T2, Lyn(h) (Homo sapiens, UniProt P07948)
T2 construct: purchased Millipore
T2 sequence (P07948 whole entry): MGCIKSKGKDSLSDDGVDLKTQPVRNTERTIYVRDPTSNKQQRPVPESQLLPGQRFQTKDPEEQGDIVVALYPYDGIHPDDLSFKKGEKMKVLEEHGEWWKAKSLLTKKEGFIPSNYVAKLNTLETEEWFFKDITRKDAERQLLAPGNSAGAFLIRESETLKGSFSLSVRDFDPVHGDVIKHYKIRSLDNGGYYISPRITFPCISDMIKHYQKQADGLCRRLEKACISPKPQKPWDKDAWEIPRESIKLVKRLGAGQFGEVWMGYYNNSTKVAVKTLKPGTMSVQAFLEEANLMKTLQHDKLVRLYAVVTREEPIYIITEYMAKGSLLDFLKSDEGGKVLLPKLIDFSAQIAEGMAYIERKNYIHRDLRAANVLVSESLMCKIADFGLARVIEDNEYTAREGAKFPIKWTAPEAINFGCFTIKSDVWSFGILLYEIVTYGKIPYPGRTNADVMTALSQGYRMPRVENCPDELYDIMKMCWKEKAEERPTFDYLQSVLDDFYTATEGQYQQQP
How it was run: as §1

Tec(h) activated = target: T3, Tec(h) activated (Homo sapiens, UniProt P42680)
T3 construct: purchased Millipore
T3 sequence (P42680 1-631): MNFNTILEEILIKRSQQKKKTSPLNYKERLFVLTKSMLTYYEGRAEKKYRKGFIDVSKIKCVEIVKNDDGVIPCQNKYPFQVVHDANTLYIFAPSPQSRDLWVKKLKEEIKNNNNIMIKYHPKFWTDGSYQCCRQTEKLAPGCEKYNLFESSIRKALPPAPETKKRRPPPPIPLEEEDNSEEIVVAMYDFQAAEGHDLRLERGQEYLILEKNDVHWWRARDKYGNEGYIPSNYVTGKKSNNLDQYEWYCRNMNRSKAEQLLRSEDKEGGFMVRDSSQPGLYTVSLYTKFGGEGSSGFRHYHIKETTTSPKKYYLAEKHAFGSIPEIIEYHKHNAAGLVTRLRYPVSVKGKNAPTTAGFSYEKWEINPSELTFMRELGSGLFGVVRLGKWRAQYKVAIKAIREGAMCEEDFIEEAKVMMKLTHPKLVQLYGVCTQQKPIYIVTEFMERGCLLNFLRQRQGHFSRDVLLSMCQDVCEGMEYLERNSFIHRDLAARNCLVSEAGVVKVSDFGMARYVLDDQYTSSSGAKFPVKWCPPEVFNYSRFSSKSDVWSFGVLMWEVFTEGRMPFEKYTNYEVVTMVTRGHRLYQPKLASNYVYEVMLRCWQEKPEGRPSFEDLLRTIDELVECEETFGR
How it was run: as §1

EphB2(h) = target: T4, EphB2(h) (Homo sapiens, UniProt P29323)
T4 sequence (P29323 19-1055): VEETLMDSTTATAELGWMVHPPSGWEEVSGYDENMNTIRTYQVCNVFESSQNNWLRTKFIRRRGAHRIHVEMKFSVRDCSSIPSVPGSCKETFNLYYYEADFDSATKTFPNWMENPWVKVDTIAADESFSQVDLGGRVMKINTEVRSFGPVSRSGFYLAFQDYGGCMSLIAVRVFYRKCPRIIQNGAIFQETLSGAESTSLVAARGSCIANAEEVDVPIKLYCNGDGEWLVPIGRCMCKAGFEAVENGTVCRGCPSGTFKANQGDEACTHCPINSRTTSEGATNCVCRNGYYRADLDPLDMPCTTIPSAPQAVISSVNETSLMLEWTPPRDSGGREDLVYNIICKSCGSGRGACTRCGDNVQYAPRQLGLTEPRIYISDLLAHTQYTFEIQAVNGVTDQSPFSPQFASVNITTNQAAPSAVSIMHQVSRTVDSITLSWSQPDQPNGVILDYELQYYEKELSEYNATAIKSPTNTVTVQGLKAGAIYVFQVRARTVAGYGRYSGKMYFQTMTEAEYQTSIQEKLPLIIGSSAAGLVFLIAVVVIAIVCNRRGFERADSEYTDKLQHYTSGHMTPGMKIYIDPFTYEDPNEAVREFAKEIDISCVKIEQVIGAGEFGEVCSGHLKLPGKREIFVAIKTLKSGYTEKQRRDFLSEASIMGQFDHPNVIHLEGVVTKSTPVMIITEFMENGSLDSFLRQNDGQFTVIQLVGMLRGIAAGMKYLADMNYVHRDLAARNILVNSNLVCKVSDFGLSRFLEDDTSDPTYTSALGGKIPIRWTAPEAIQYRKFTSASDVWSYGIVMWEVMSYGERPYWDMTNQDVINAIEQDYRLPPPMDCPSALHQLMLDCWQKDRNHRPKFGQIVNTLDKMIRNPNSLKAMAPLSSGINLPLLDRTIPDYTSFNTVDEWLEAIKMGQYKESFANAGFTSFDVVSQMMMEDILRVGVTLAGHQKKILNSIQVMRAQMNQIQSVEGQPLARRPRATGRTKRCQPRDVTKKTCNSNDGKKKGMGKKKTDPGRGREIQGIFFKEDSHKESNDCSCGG
How it was run: as §1

Row | Sequence | % activity (Flt3(D835Y)(h)) | % activity (EphA8(h)) | % activity (Lyn(h)) | % activity (Tec(h) activated) | % activity (EphB2(h))
1 | KAFAKLAARLYRKALARQLGVAA [MMI-0400] | 71% | 146% | 3% | 29% | 22%
2 | FAKLAARLYRKALARQLGVAA [MMI-0300] | 80% | 93% | 69% | 56% | 18%
3 | YARAAARQARAKALARQLGVAA [MMI-0100] | 120% | 181% | – | 100% | 68%
4 | HRRIKAWLKKIKALARQLGVAA (Mammal) [MMI-0500] | 65% | 337% | 31% | 33% | 70%
5 | YARAAARQARAKALNRQLGVA (Mammal) [MMI-0200] | – | 133% | 98% | 77% | 128%
